The target of assay [1] is hemagglutinin (HA) of influenza A virus A/PR8/1934 (seasonal H1N1) (influenza A virus A/PR8/1934 (H1N1sea)) (UniProt P03452). Kind of assay: cell-based or functional assay.
The target in assay [2] is hemagglutinin (HA) of influenza A virus A/Brisbane/59/2007 (seasonal H1N1) (influenza A virus A/Brisbane/59/2007 (H1N1sea)). Kind of assay: cell-based or functional assay.
Assay [3] concerns the target hemagglutinin (HA) of influenza A virus A/Suita/105/2011 (H1N1pdm) (influenza A virus A/Suita/105/2011 (H1N1pdm)). The assay can be described thus: cell-based or functional assay.
Assay [4] deals with hemagglutinin (HA) of influenza A virus A/Suita/104/2011 (H1N1pdm) (influenza A virus A/Suita/104/2011 (H1N1pdm)). Kind of assay: cell-based or functional assay.
Assay [5] deals with hemagglutinin (HA) of influenza A virus A/Osaka/168/2009 (H1N1pdm) (influenza A virus A/Osaka/168/2009 (H1N1pdm)). Kind of assay: cell-based or functional assay.
Assay [6] has as its target hemagglutinin (HA) of influenza A virus A/Suita/117/2011 (H1N1pdm) (influenza A virus A/Suita/117/2011 (H1N1pdm)). Kind of assay: cell-based or functional assay.
For assay [7], the target named is hemagglutinin (HA) of influenza A virus A/Turkey/Wisconsin/1/1966 (H9N2) (influenza A virus A/Turkey/Wisconsin/1/1966 (H9N2)) (UniProt P03457). Kind of assay: cell-based or functional assay.
Assay [8] concerns the target hemagglutinin (HA) of influenza A virus A/PR8/1934 (seasonal H1N1) (influenza A virus A/PR8/1934 (H1N1sea), UniProt P03452 18-565). The assay can be described thus: cell-based or functional assay.
In assay [9] the target is hemagglutinin (HA) of influenza A virus A/Turkey/Wisconsin/1/1966 (H9N2) (influenza A virus …, UniProt P03457 19-560). The assay can be described thus: cell-based or functional assay.
The target of assay [10] is hemagglutinin (HA) of influenza A virus A/Duck/Egypt/D1Br12/2007 (H5N1) (influenza A virus A/Duck/Egypt/D1Br12/2007 (H5N1)). Kind of assay: cell-based or functional assay.
For assay [11], the target named is hemagglutinin (HA) of influenza A virus A/Chicken/Egypt/R1MD12-3/2008 (H5N1) (influenza A virus A/Chicken/Egypt/RIMD12-3/2008 (H5N1)). Kind of assay: cell-based or functional assay.
Assay [12] addresses hemagglutinin (HA) of influenza A virus A/Aichi/2/1968 (H3N2) (influenza A virus A/Aichi/2/1968 (H3N2), UniProt P03437 17-566). The assay can be described thus: IFA on virus-infected MDCK cells.

The record followed here is US20160264648A1 (OSAKA UNIVERSITY, published 2016).

Regarding “mouse MAb C179 capable of exhibiting a broad reactivity with HAs belonging to group 1 (antibody)”, the Neutralization activity (VN50 value µg/ml) in assay [1] was determined as 3.1 µg/mL; in [2], 5.57 µg/mL; in assay [3], 3.11 µg/mL; in [4] it was 5.98 µg/mL; in assay [5], 5.68 µg/mL; in [6] it was 5.73 µg/mL. This molecule also returned a Neutralization activity (VN50 value µg/ml) in [7] of 5.53 µg/mL.

B1: human monoclonal antibody (HuMAb) 1H11 (antibody, V domains shown)
VH: QVQLVQSGAEVKKPGSSVKVSCKSSGGNFNNYAVSWVRQAPGQGLEWMGGISPIFGSTNHAQKFQGRVTISADIFTNTAYMELSSLRSDDTAIYYCARGRGYYFYHAMDVWGQGSTVTVSS
VL: QSALTQPASVSGSPGQSITISCTGTSSDVGGYNYVSWYQQHPGEAPKLMISDVSNRPSGVSNRFSGSKSGNTASLTISGLQAEDEADYYCTSYTSSNTLVFGGGTKLTVL
B1: the “Neutralization activity (VN50 value µg/ml)” value in assay [8] stood at 2.87 µg/mL; in assay [9], 11.8 µg/mL; in assay [2] it was 2.89 µg/mL; in assay [3] it was 11.4 µg/mL; in [4], 11.3 µg/mL; in [5], 0.78 µg/mL. Further, the Neutralization activity (VN50 value µg/ml) amounted to 6.08 µg/mL in assay [10], 11.6 µg/mL in assay [6] and 6.12 µg/mL in assay [11]. Besides, in assay [12], the binding result is “no binding”.

B2: human monoclonal antibody (HuMAb) 2H5 (antibody, V domains shown)
VH: QVQLVQSGAEVKKPGSSVKVSCKSSGGNFNNYAVSWVRQAPGQGLEWMGGISPIFGSTNHAQKFQGRVTISADIFTNTAYMELSSLRSDDTAIYYCARGRGYYFYHAMDVWGQGSTVTVSS
VL: QSVLTQPPSVSAAPGQKVTISCSGSSSNIGHNFVSWYQQLPATAPKLLIYDTDKRPSGIPDRFSGSKSGTSATLGITGLQTGDEADYYCGTWDSSLSSVIFGGGTKLTVL
With B2, the “Neutralization activity (VN50 value µg/ml)” value in [8] was 5.83 µg/mL; in [9], more than 100 µg/mL; in assay [2], 5.53 µg/mL; in [3] it was 6.21 µg/mL; in assay [4], 6 µg/mL; in assay [5], 1.51 µg/mL. The Neutralization activity (VN50 value µg/ml) in [10] was 6.05 µg/mL; in [6], 6.03 µg/mL; in assay [11], 11.7 µg/mL. For the same molecule, the binding result in assay [12] was “no binding”.
